According to patent publication US12024547B2, “KLK5 inhibitory peptide” (DAIICHI SANKYO COMPANY, LIMITED, priority 2018, dated 2024):

Columns and labels:
KLK5 [1] = biological target: T1, KLK5 (Homo sapiens, UniProt Q9Y337); test: KLK5 binding activity of KLK5 inhibitory peptide, surface plasmon resonance (biotinylated KLK5 captured, peptide as analyte); conditions: BIAcore T 200, single cycle kinetics
T1 construct: “Active KLK5” means active KLK5, which is composed of a domain having a protease activity; His tag (C); FLAG (Gly-DYKDDDDK before the His tag); made in house; host or cells: Expi293F cells
T1 sequence (Q9Y337 67-293): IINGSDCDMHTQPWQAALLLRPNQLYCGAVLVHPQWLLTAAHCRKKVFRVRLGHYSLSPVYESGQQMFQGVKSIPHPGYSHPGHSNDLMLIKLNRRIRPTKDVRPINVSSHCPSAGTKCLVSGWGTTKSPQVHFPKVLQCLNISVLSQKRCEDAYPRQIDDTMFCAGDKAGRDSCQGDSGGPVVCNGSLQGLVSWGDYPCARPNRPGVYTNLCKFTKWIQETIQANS
Procedure: In order to measure the binding affinity of the KLK5 inhibitory peptides, surface plasmon resonance analysis was conducted using BIAcore T 200 (GE healthcare). A complementary strand of DNA of a streptavidin conjugate was captured by hybridization on Sensor Chip CAP (GE healthcare) on which single-stranded DNA immobilized. Next, KLK5 biotinylated using EZ-Link NHS-PEG4-Biotin (Thermo Fisher Scientific) was captured at a flow rate of 10 μL/min to immobilize about 10 RU. Thereafter, the KLK5 inhibitory peptide, serially diluted 2-fold with HBS-EP (0.625 to 10 nM), was added thereto as an analyte at a flow rate of 30 μL/min. In the BIAcore T 200 Evaluation software (version 2.0), kon and koff were calculated by analysis using Single cycle kinetics in a simple one-to-one Langmuir binding model. The dissociation constant KD was calculated as a ratio of koff/kon. Further, multiple KLK5 inhibitory peptides were measured by regenerating Sensor Chip CAP using a Regeneration buffer attached to a Biotin CAPture Kit (GE healthcare) and repeatedly capturing biotinylated KLK5.

KLK5 [2] = biological target: T1, KLK5; test: X-ray crystal structure analysis of KLK5/KLK5 inhibitory peptide complex; conditions: resolution 1.8 Å
Procedure: According to the methods described in (1-2) and (2-2), KLK5 inhibitory peptides K51034 and KLK5 having the amino acid sequences shown by the SEQ ID numbers were prepared. After mixing the two under conditions of 50 mM Tris-HCl, 150 mM NaCl, and pH 8.0, a complex was isolated and purified by gel filtration chromatography (Superdex 200 10/300 GL).
The complex solution prepared in (4-1) was concentrated to 12 mg/mL, thereafter mixed with a reservoir solution (0.2 M Magnesium Chloride hexahydrate, 20% PEG3350) at a ratio of 1:1, and crystallized by a vapor diffusion method. The obtained cubic single crystal was immersed in a reservoir solution containing 20% glycerol and thereafter frozen in liquid nitrogen. The frozen crystals were irradiated with X-rays in a cryo-stream to obtain a diffraction image (Hypixel 6000HE/MicroMax007). Scaling data with a maximum resolution of 1.7 Å was obtained by analysis using CrysAlisPro. The phase was determined by the molecular replacement method using KLK5 alone (PDB ID: 2PSX) and SPINK2 alone (PDB ID: 2JXD) as templates. After structural refinement, complex crystals of KLK5/the peptide K51034 were determined at a resolution of 1.8 Å. One molecule each of KLK5 and SPINK2 was contained in a unit cell. […]

human KLK14 = biological target: T2, human KLK14 (Homo sapiens, UniProt Q9P0G3); test: Human KLK14 inhibitory activity, peptide substrate degradation; type: biochemical; conditions: KLK5 inhibitory peptide; hKLK14 0.2 μg/mL, substrate 100 μM
T2 construct: His tag (C); FLAG (Gly-DYKDDDDK before the His tag); made in house; host or cells: Expi293F cells
T2 sequence (Q9P0G3 25-251): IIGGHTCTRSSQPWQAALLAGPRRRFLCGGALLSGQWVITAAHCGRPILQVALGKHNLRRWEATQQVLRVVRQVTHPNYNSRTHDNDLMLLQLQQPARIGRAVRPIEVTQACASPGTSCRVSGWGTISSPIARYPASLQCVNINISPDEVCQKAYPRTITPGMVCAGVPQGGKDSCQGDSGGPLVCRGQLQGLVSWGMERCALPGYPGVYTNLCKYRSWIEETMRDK
Procedure: The substrate peptide was dissolved in DMSO to 10 mM and diluted with an assay buffer (50 mM Tris-HCl, 150 mM NaCl, pH 8.0) for use. 25 μL each of human/mouse KLK5, human/mouse KLK7, or human/mouse KLK14 and the inhibitory peptide diluted with the assay buffer were mixed, followed by a reaction at 37° C. for 20 minutes. Thereafter, 50 μL of a substrate diluted with the assay buffer was added thereto, and the fluorescence signal was measured using Enspire (PerkinElmer). The combinations of the enzyme and the substrate used were as follows.
Evaluation of Human KLK14 inhibitory activity: hKLK14 with a final concentration of 0.2 μg/mL, a substrate peptide Boc-Val-Pro-Arg-AMC with a final concentration of 100 μM (R&D Systems, Inc.), and a fluorescence signal with excitation at 380 nm/emission at 460 nm
The average value of three independent experiments was used to calculate the IC50 value.
According to the method described in Example 3-1, the inhibitory activities of each KLK5 inhibitory peptide Fc fusion against human/mouse KLK5, human/mouse KLK7, and human/mouse KLK14 were evaluated. […] The average value of three independent experiments was used to calculate the IC50 value.

Molecule | Koff (KLK5 [1]) | binding site on KLK5 in complex crystal (KLK5 [2]) | IC50 (human KLK14)
K51034: KLK5 inhibitory peptide (SPINK2 mutant), amino acid sequence SEQ ID NO: 14 (protein) GPQFGLFSKYRTPNCGRYTTGGCNKEYEPVCGSDMSTYANECTLCMKIREGGHNIKIIRNGPCGG | 3.5e-05 s⁻¹ | bound to a region containing the KLK5 enzyme's active site | –
K51005: KLK5/KLK7 inhibitory peptide (SPINK2 mutant), amino acid sequence SEQ ID NO: 24 (protein) GPQFGLFSKYRTPNCMQHARQGCHYDYDPVCGSDMSTYANECTLCMKIREGGHNIKIIRNGPCGG | 0.0012 s⁻¹ | – | > 1000 nM
K50015: KLK5/KLK14 inhibitory peptide (SPINK2 mutant), amino acid sequence SEQ ID NO: 32 (protein) GPQFGLFSKYRTPNCYDTTTHYCSREYDPVCGSDMSTYANECTLCMKIREGGHNIKIIRNGPCGG | 1e-06 s⁻¹ | – | –
K50016: KLK5 inhibitory peptide (SPINK2 mutant), amino acid sequence SEQ ID NO: 12 (protein) GPQFGLFSKYRTPNCSQWQYSSCDRVYDPVCGSDMSTYANECTLCMKIREGGHNIKIIRNGPCGG | 0.00029 s⁻¹ | – | –
K50062: KLK5 inhibitory peptide (SPINK2 mutant), amino acid sequence SEQ ID NO: 16 (protein) GPQFGLFSKYRTPNCQQYRELGCGRQYDPVCGSDMSTYANECTLCMKIREGGHNIKIIRNGPCGG | 2.9e-06 s⁻¹ | – | –
K51090: KLK5 inhibitory peptide (SPINK2 mutant), amino acid sequence SEQ ID NO: 18 (protein) GPQFGLFSKYRTPNCDEIGKYGCGRSYDPVCGSDMSTYANECTLCMKIREGGHNIKIIRNGPCGG | 5.7e-05 s⁻¹ | – | –
K50098: KLK5 inhibitory peptide (SPINK2 mutant), amino acid sequence SEQ ID NO: 20 (protein) GPQFGLFSKYRTPNCTSQTLGSCSREYDPVCGSDMSTYANECTLCMKIREGGHNIKIIRNGPCGG | 1.8e-05 s⁻¹ | – | –
K50031: KLK5/KLK7 inhibitory peptide (SPINK2 mutant), amino acid sequence SEQ ID NO: 26 (protein) GPQFGLFSKYRTPNCGEYKGRGCYYHYDPVCGSDMSTYANECTLCMKIREGGHNIKIIRNGPCGG | 5e-05 s⁻¹ | – | –
K51057: KLK5/KLK7 inhibitory peptide (SPINK2 mutant), amino acid sequence SEQ ID NO: 28 (protein) GPQFGLFSKYRTPNCGTMQGSGCTYHYEPVCGSDMSTYANECTLCMKIREGGHNIKIIRNGPCGG | 0.0015 s⁻¹ | – | –
K51028: KLK5/KLK7 inhibitory peptide (SPINK2 mutant), amino acid sequence SEQ ID NO: 22 (protein) GPQFGLFSKYRTPNCYQYRSKGCTHEYDPVCGSDMSTYANECTLCMKIREGGHNIKIIRNGPCGG | 2e-05 s⁻¹ | – | –
K50032: KLK5 inhibitory peptide (SPINK2 mutant), amino acid sequence SEQ ID NO: 6 (protein) GPQFGLFSKYRTPNCLNWTDHQCERDYDPVCGSDMSTYANECTLCMKIREGGHNIKIIRNGPCGG | 0.00027 s⁻¹ | – | –
K50055: KLK5 inhibitory peptide (SPINK2 mutant), amino acid sequence SEQ ID NO: 8 (protein) GPQFGLFSKYRTPNCANTMKQDCTREYDPVCGSDMSTYANECTLCMKIREGGHNIKIIRNGPCGG | 1.8e-05 s⁻¹ | – | –
K51069: KLK5/KLK14 inhibitory peptide (SPINK2 mutant), amino acid sequence SEQ ID NO: 30 (protein) GPQFGLFSKYRTPNCSQVVETYCNRDYDPVCGSDMSTYANECTLCMKIREGGHNIKIIRNGPCGG | 1e-06 s⁻¹ | – | –
K51072: KLK5 inhibitory peptide (SPINK2 mutant), amino acid sequence SEQ ID NO: 10 (protein) GPQFGLFSKYRTPNCQEDMTEYCARDFDPVCGSDMSTYANECTLCMKIREGGHNIKIIRNGPCGG | 2.2e-05 s⁻¹ | – | –
